Reference: PMC8880170

Experiments:
[1] = target: SARS-CoV-2 nsp15 K290A (SARS-CoV-2); experiment: SEC; […] (20 mM Tris-HCl pH 8, 150 mM NaCl); […]
[2] = target: SARS-CoV-2 nsp15 N164A (SARS-CoV-2); experiment: SEC; […] (20 mM Tris-HCl pH 8, 150 mM NaCl); […]

SARS-CoV-2 nsp15 K290A (enzyme) gave a stoichiometry N [1] of 6.
SARS-CoV-2 nsp15 N164A (enzyme) gave a stoichiometry N [2] of 6.
